Measurements from article PMC5345856, “Suppressor of rid1 (SID1) shares common targets with RID1 on florigen genes to initiate floral transition in rice”.

T1: RID1 (Oryza sativa (rice), UniProt B1B534 1-475)
T1 sequence: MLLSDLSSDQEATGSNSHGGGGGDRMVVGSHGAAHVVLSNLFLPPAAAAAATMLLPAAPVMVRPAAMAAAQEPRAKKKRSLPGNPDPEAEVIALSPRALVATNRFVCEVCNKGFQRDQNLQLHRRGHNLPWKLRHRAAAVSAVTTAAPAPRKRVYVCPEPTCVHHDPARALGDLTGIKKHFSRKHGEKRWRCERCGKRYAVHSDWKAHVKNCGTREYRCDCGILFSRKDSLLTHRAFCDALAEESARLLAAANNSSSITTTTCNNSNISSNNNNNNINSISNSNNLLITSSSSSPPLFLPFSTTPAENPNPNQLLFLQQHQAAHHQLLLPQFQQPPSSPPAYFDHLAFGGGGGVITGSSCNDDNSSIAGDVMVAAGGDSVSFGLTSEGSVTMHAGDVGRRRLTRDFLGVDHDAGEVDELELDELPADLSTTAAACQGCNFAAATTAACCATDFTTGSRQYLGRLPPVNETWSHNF


target: T1, RID1; test: EMSA; 10 uM ZnCl2; 10 mM Tris (pH not stated), 50 mM KCl, 10 uM ZnCl2, 1 mM DTT, 1 ug/ul poly(dI-dC), 0.1% BSA, 2.5% glycerol, 0.05% NP-40; 50 fmol probe; 30 min on ice; 6% native PAGE; conditions: protein: recombinant; tags: His (pET-32a; vector Trx fusion not mentioned); label: 5' biotin; blunt

Row | Binder | binding result
1 | bio-Hd3a (dsDNA) DNA 1: CTTATCTTGCCCGGACAAATCGAGCTAAGCAA DNA 2: TTGCTTAGCTCGATTTGTCCGGGCAAGATAAG | binds
2 | bio-Hd3a-M (dsDNA) DNA 1: CTTATCTTGCCCGGATTAATCGAGCTAAGCAA DNA 2: TTGCTTAGCTCGATTAATCCGGGCAAGATAAG | no binding
3 | bio-RFT1 (dsDNA) DNA 1: ATAACGTTTGACCATTTGTCTTATTAAATATATATATAAA DNA 2: TTTATATATATATTTAATAAGACAAATGGTCAAACGTTAT | binds
4 | bio-RFT1-M (dsDNA) DNA 1: ATAACGTTTGACCATTAATCTTATTAAATATATATATAAA DNA 2: TTTATATATATATTTAATAAGATTAATGGTCAAACGTTAT | no binding
